Laboratory results from the DeepSol protein solubility set.

assay: soluble on expression in E. coli; label from the status in PepcDB or PDB records

Row | Sequence | soluble on expression in E. coli
1 | KLGAPVKKAILEALSERDQTADICKDSKGNIEPDTQLRDTELVAFPDHLTLPLPVNYDKEPDLSKLLPLVKAHCEAYLKAEVLPHVADAWIDYSKTKVGYEIPINRHFYIYEPPRPLEEIKAEIVQLEQEIMQMLGGLSA | not soluble
2 | MRLQTVKHFLEPVLEPLIRKVVKEEVELALGKHLAGIKWICEKETHPLESRNLQLKFLNNLSLPVFTSARIEGDEGQAIRVGLIDPSTGQIFSSGPASSAKLEVFVVEGDFNSVSDWTDEDIRNNIVREREGKKPLLNGNVFAVLNDGIGVMDEISFTDNSSWTRSRKFRLGVRIVDQFDYVKIREAITESFVVRDHRGELYKKHHPPSLFDEVWRLEKIGKDGAFHRRLNLSNINTVKDFLTHFHLNSSKLRQVLGTGMSSKMWEITLDHARSCVLDSSVHVYQAPGFQKKTAVVFNVVAQVLGLLVDFQYIPAEKLSEIEKALILSVYIFDLAQAEVMVIDALSHLNEVISYDDEVSMMRNVLNAPASQGSVAGIDYSGLSLTSLDGYGFVSSLHNTAECSGKHSDDVDMEVTPHGLYEDYDNLWNCSHILGLEEPQSELQSALDDFMSQKNASVGGKAHSKRWTKLFSVSRWLSVFKYVKLGKI | soluble
3 | MYKDFANFIRTNKADLLNNWMNEMEKQSDQLINDIAKEAMYEETSKEFVDLIVSNVTENGSKFNEKLDDFAEKVVHLGWPIHFVTTGLRVFGLLVYTAMRDEDLFLKREEKPEDDAYYRFETWLSSMYNKVVTAYADTWEKTVSIQKSALQELSAPLLPIFEKISVMPLIGTIDTERAKLIIENLLIGVVKNRSEVVLIDITGVPVVDTMVAHHIIQASEAVRLVGCQAMLVGIRPEIAQTIVNLGIELDQIITTNTMKKGMERALALTNREIVEKEG | not soluble
4 | MLSFRNWWAREDSNPRPPGYEPGALPTELRAHTAIRLYSNKTPLSRSVISMKKDPIKEMLVKYPRILVIKAALKILKDGNKIDRERIEKTIVKIMTKKEG | not soluble
5 | MSKDEILKLGREEFFKSVKMEYRPYFEPYETPESVYPDGSINIDCTCLHSALAHRCGYLIRDALVCFNASKTTPRGLDCEKEFVAHAICTEEANNKS | not soluble
6 | HHHHHHSSGLVPRGSHMMNPFHDLEPGPNVPEVVYALIEIPKGSRNKYELDKETGLLKLDRVLYTPFHYPVDYGIIPRTWYEDGDPFDIMVIMREPTYPLTIIEARPIGLFKMIDSGDKDYKVLAVPVEDPYFKDWKDISDVPKAFLDEIAHFFKRYKELEGKEIIVEGWEGAEAAKREILRAIEMYKEKFGKKE | soluble
7 | APTLISLLEVIEPEVLYSGYDSTLPDTSTRLMSTLNRLGGRQVVSAVKWAKALPGFRNLHLDDQMTLLQYSWMSLMAFSLGWRSYKQSNGNMLCFAPDLVINEERMQLPYMYDQCQQMLKISSEFVRLQVSYDEYLCMKVLLLLSTVPKDGLKSQAVFDEIRMTYIKELGKAIVKREGNSSQNWQRFYQLTKLLDSMHEMVGGLLQFCFYTFVNKSLSVEFPEMLAEIISNQLPKFKAGSVKPLLFHQK | soluble
8 | MSLAQMPLTPNPDQHNAIQRVLKSLHHYQAFLLDGLTGSGKTEVYLQIMHEVLKQGKQVLVLVPEIGLTPQTISRFKSRFHCDVALLHSGLNDSKRLQAWQQAKMGKASIILGTRSAIYTPLPRLGLIILDEEHDLSYKQQEGFRYHARDVALYRGYLEQCPVILGSATPSIDSYHLVEQNKLELLQLNQRAGVALLPKMHLIDLKVAKKNEGLSQILIDQIQHTLDRQEQVLIFLNRRGYAPVLVCESCGWQANCPNCDAHFTLHTQPYGYLHCHHCGTIHRLPETCPECHHHTLKTLGMGTAKVEEHLKTLFPEHDVIRVDRDSTSRVGSWQKIYDRIQHNKPMILLGTQMLAKGHHFPYVTLVAILDIDAGLLSVDVRAPERTAQLIVQVAGRAGRGEHKGHVYMQTLRPDHPMLTTLIEKDYRAVAKDMLEERKAARLPPYRYSVLIRCESRDRDYSQAFLQEIAQMLQHQAGDSIEIWGPIPAPMERKAGRYRAHMVILAQDRARLHFFLRPWWAEVIQLPRQHQLRLSIDVDPQEFNEGHHHHHH | soluble
9 | DNYNVEGASASFAVGYERGVKQLAEGLLLSIYAELDWAAFRSVSDKRSLPFSDDSAQNRFRFLAGAGVHKRLNPNIELYARGAVGASFFPENNGSSSRELKGGFNVSLRVGLSCSLRDNFAVFIDTGTSDIVRGGLALMW | not soluble
10 | MGSRENLYFQGLEHHHHHHHMKIISKMLVGALALAVTNVYAAELMTKAEFEKVESQYEKIGDISTSNEMSTADAKEDLIKKADEKGADVLVLTSGQTDNKIHGTANIYKKK | soluble
11 | MRWNLDPTHTSVEFAVRHMMIATVRGTMGLKEGYVETDETGKPIRVEARLDAASIHTGVADRDNHLRSPDFLDVANHPEIVFRSEKITPLGEGRYRVEGEVTIRGVTRPLAFEVETHGPAKDPWGNERIAAHFEGKLNRKDFGLTWNMPLETGGLLVGEEVRFSVDTQAVKAKEAVAQ | soluble
